The values below come from paper PMC6350941 (Cell reports, 2019).

Where two headings read alike, the source gives them in different places.

Data set [1] concerns the target T1, FANCI (human);FANCD2 (human) (human;human, UniProt Q9NVI1;Q9BXW9 1-1328;1-1451, |). The data set is described as follows: EMSA. (A gel shift assay detects complexes by their altered migration in electrophoresis.)
In data set [2] the target is chicken FANCD2 (His-tagged) (chicken, UniProt Q68Y81 1-1439). Nature of the data set: SEC. In general terms: Size exclusion chromatography separates by hydrodynamic size, large species first.
The target of the next data set is FANCI (human) (human, UniProt Q9NVI1 1-1328). The data set is described as follows: EMSA.
A further data set has as its target T2, FANCI (chicken) (chicken, UniProt B0I564 1-1338).
T2 sequence: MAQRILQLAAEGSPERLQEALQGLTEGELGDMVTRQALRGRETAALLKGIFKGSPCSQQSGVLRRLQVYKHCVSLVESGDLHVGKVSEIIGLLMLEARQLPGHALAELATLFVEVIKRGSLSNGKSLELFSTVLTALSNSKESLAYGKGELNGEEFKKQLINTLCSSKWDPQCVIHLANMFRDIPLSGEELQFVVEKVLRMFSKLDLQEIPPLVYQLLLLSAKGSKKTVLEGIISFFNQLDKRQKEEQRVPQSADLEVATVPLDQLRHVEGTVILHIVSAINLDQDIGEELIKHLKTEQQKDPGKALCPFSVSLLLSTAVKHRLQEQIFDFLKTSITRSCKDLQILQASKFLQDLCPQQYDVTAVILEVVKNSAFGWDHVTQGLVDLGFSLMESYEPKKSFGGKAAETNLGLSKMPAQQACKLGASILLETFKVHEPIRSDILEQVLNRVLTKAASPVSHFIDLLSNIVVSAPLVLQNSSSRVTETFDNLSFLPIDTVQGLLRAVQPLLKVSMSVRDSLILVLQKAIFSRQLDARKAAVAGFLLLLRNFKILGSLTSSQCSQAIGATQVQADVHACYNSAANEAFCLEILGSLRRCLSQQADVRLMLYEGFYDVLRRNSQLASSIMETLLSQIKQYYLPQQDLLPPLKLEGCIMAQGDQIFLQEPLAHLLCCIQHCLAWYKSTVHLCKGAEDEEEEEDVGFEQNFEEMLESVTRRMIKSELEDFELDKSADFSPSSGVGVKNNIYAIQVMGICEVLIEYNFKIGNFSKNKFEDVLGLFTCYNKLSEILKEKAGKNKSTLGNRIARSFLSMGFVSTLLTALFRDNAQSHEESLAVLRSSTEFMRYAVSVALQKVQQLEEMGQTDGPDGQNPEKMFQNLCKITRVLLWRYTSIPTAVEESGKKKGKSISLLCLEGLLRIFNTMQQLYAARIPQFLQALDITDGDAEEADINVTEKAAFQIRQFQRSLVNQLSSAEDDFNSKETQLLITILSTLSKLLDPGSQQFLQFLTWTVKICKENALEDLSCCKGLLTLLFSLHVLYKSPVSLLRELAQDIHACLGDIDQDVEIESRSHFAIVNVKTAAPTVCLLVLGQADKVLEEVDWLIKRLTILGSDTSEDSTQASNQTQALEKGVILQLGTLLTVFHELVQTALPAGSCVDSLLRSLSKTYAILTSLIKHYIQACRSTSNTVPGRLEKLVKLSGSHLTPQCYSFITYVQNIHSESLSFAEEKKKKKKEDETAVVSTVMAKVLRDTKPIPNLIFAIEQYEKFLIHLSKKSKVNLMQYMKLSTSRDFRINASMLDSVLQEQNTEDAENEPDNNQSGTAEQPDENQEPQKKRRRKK
The data set is described as follows: EMSA.

Data set [3] deals with FANCI (chicken);FANCD2 (chicken) (chicken;chicken, UniProt B0I564;Q68Y81 1-1338;1-1439, |). The data set is described as follows: EMSA.
A further data set has as its target FANCD2 (chicken) (chicken, UniProt Q68Y81 1-1439). Nature of the data set: EMSA.
Data set [4] addresses T1, FANCI (human);FANCD2 (human). The data set is described as follows: EMSA. This is another data set of the same source.
Data set [5] shares this target. Nature of the data set: EMSA. The source holds these as a separate data set.
For data set [6] the target is unchanged. The data set is described as follows: EMSA. This is another data set of the same source.
The target is the same in data set [7]. The data set is described as follows: EMSA. This is another data set of the same source.

Sequence of FANCI (human) (Q9NVI1 whole entry): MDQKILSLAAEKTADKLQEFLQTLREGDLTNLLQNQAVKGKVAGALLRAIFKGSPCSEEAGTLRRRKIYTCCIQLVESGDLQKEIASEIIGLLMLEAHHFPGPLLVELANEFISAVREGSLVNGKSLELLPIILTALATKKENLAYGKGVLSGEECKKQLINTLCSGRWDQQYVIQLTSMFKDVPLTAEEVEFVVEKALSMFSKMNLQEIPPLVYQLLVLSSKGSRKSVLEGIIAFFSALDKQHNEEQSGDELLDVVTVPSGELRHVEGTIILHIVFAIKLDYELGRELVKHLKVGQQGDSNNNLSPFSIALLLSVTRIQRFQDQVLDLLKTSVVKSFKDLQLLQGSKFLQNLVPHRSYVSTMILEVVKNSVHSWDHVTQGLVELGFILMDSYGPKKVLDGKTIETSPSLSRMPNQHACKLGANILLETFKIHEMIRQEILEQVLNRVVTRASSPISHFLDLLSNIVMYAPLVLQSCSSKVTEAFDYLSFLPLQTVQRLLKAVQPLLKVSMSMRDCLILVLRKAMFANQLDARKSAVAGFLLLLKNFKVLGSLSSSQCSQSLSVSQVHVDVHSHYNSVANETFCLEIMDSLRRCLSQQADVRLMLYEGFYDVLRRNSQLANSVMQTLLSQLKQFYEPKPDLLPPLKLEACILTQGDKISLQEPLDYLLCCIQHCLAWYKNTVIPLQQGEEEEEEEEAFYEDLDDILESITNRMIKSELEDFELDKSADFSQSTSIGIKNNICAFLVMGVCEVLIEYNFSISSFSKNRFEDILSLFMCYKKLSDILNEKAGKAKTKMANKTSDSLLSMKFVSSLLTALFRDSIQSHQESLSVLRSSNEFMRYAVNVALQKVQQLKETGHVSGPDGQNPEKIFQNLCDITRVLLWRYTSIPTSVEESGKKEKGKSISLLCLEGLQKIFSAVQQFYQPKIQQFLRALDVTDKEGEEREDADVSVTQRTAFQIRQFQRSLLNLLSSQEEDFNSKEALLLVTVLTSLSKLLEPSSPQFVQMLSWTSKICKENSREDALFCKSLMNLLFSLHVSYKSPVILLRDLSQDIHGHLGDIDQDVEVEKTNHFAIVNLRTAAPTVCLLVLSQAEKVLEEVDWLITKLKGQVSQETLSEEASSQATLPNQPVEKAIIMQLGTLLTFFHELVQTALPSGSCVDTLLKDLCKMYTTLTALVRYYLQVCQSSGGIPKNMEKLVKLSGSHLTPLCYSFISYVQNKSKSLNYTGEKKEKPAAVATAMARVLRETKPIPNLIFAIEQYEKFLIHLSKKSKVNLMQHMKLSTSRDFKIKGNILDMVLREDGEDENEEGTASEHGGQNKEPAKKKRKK
T1 sequence (Q9NVI1 whole entry, chain 1 of 2): as the sequence (Q9NVI1 whole entry) above
T1 sequence (Q9BXW9 whole entry, chain 2 of 2): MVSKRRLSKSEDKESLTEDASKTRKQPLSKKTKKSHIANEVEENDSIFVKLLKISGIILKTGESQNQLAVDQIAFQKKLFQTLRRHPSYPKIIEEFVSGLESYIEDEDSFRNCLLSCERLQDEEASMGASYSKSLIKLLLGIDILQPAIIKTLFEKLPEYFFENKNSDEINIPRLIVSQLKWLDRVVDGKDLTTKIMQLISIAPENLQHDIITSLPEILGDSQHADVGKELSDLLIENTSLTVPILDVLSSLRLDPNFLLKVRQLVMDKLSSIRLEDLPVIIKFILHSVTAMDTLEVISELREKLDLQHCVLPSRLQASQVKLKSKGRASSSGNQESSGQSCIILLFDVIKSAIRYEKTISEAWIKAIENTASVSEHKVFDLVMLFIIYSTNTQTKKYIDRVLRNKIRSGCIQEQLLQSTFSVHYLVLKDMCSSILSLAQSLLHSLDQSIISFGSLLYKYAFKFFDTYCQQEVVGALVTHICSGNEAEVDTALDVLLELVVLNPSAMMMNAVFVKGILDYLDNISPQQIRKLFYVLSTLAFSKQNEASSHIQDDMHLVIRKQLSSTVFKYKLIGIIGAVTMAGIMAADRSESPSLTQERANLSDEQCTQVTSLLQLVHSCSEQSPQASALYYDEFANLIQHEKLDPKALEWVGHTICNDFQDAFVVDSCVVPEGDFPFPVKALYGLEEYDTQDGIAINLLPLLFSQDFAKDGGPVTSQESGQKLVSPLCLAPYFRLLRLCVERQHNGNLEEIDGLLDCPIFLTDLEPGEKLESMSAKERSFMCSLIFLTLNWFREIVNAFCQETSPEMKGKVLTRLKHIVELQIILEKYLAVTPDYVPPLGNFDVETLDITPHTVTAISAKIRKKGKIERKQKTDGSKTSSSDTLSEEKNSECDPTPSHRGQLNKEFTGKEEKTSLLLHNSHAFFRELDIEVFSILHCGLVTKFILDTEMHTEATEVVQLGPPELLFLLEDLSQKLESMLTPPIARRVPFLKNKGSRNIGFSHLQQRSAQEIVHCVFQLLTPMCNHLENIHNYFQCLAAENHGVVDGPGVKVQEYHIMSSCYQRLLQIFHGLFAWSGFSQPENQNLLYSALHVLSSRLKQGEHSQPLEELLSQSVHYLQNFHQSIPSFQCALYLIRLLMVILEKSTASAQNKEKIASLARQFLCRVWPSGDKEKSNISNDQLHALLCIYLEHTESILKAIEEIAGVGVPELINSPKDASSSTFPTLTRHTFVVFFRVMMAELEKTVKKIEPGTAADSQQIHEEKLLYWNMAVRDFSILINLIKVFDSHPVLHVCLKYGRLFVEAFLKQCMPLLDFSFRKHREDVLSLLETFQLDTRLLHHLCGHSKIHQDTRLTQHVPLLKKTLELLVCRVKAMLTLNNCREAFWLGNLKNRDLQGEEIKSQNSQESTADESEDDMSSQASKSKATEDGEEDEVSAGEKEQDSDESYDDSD
Sequence of FANCI (chicken);FANCD2 (chicken) (Q68Y81 whole entry, one chain of several): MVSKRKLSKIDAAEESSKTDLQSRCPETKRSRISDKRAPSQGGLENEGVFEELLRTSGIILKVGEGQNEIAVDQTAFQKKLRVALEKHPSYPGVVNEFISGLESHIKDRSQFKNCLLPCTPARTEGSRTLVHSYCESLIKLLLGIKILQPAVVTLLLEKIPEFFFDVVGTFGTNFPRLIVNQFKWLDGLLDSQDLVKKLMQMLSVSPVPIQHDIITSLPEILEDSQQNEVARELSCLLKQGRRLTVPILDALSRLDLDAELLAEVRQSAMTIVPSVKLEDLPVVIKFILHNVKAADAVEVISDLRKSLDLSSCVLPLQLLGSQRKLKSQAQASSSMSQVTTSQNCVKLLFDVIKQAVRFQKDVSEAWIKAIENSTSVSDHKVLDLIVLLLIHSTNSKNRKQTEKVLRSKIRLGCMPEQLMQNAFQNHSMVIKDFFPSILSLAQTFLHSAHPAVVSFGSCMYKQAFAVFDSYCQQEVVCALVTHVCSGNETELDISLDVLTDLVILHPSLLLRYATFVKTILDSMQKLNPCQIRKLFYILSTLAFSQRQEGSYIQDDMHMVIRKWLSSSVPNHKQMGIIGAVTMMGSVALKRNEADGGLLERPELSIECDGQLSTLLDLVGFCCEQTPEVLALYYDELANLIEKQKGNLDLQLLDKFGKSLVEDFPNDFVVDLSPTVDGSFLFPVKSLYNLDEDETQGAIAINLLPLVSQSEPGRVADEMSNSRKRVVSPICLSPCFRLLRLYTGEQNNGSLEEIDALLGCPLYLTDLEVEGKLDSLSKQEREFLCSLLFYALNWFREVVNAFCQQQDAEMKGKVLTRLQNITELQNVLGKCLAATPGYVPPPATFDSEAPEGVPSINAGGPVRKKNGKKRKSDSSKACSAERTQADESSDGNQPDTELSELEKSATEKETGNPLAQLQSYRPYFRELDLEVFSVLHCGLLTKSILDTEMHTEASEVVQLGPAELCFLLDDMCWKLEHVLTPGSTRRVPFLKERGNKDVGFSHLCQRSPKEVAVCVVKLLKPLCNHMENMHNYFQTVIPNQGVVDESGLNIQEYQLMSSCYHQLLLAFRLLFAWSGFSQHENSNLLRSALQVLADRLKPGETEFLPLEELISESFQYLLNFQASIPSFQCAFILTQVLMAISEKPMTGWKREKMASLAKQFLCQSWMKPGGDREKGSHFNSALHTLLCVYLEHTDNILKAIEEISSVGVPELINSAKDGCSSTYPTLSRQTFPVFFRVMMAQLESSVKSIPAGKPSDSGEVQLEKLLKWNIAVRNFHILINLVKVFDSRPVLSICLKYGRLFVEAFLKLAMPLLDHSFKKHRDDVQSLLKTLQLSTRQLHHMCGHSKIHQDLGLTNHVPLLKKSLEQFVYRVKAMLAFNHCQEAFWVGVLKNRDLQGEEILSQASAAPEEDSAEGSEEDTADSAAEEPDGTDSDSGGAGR
Sequence of FANCD2 (chicken) (Q68Y81 whole entry): as the sequence (Q68Y81 whole entry, one chain of several) above
Sequence of chicken FANCD2 (His-tagged) (Q68Y81 whole entry): as the sequence (Q68Y81 whole entry, one chain of several) above

B1: ssDNA(G48) (ssDNA)
DNA: GGATGAGAGGGCATGTGAGTGCGTGGCTGAGAGCGGGATTGCTGAGTCTGGTGCTGGGAT
B1: the binding result in data set [1] is on record as “binds”.

B2: chicken FANCI (His-tagged) (natural protein, UniProt B0I564 1-1338, looked up)
chain: MAQRILQLAAEGSPERLQEALQGLTEGELGDMVTRQALRGRETAALLKGIFKGSPCSQQSGVLRRLQVYKHCVSLVESGDLHVGKVSEIIGLLMLEARQLPGHALAELATLFVEVIKRGSLSNGKSLELFSTVLTALSNSKESLAYGKGELNGEEFKKQLINTLCSSKWDPQCVIHLANMFRDIPLSGEELQFVVEKVLRMFSKLDLQEIPPLVYQLLLLSAKGSKKTVLEGIISFFNQLDKRQKEEQRVPQSADLEVATVPLDQLRHVEGTVILHIVSAINLDQDIGEELIKHLKTEQQKDPGKALCPFSVSLLLSTAVKHRLQEQIFDFLKTSITRSCKDLQILQASKFLQDLCPQQYDVTAVILEVVKNSAFGWDHVTQGLVDLGFSLMESYEPKKSFGGKAAETNLGLSKMPAQQACKLGASILLETFKVHEPIRSDILEQVLNRVLTKAASPVSHFIDLLSNIVVSAPLVLQNSSSRVTETFDNLSFLPIDTVQGLLRAVQPLLKVSMSVRDSLILVLQKAIFSRQLDARKAAVAGFLLLLRNFKILGSLTSSQCSQAIGATQVQADVHACYNSAANEAFCLEILGSLRRCLSQQADVRLMLYEGFYDVLRRNSQLASSIMETLLSQIKQYYLPQQDLLPPLKLEGCIMAQGDQIFLQEPLAHLLCCIQHCLAWYKSTVHLCKGAEDEEEEEDVGFEQNFEEMLESVTRRMIKSELEDFELDKSADFSPSSGVGVKNNIYAIQVMGICEVLIEYNFKIGNFSKNKFEDVLGLFTCYNKLSEILKEKAGKNKSTLGNRIARSFLSMGFVSTLLTALFRDNAQSHEESLAVLRSSTEFMRYAVSVALQKVQQLEEMGQTDGPDGQNPEKMFQNLCKITRVLLWRYTSIPTAVEESGKKKGKSISLLCLEGLLRIFNTMQQLYAARIPQFLQALDITDGDAEEADINVTEKAAFQIRQFQRSLVNQLSSAEDDFNSKETQLLITILSTLSKLLDPGSQQFLQFLTWTVKICKENALEDLSCCKGLLTLLFSLHVLYKSPVSLLRELAQDIHACLGDIDQDVEIESRSHFAIVNVKTAAPTVCLLVLGQADKVLEEVDWLIKRLTILGSDTSEDSTQASNQTQALEKGVILQLGTLLTVFHELVQTALPAGSCVDSLLRSLSKTYAILTSLIKHYIQACRSTSNTVPGRLEKLVKLSGSHLTPQCYSFITYVQNIHSESLSFAEEKKKKKKEDETAVVSTVMAKVLRDTKPIPNLIFAIEQYEKFLIHLSKKSKVNLMQYMKLSTSRDFRINASMLDSVLQEQNTEDAENEPDNNQSGTAEQPDENQEPQKKRRRKK
Take B2: the binding result in [2] is given as “binds”.

B3: ssRNA / ssRNA(G28) (ssRNA)
RNA: UGAUAAGAGGUCAUUUGAAUUCAUGGCUUAGAGCUUAAUUGCUGAAUCUGGUGCUGGGAU
For the molecule B3, the binding result (in data set [1]; with FANCI (human); in the data set with FANCI (chicken); in [3]; in the data set with FANCD2 (chicken)) was “binds” each time.

B4: dsRNA / dsRNA(G28) (dsRNA)
RNA 1: UGAUAAGAGGUCAUUUGAAUUCAUGGCUUAGAGCUUAAUUGCUGAAUCUGGUGCUGGGAU
RNA 2: AUCCCAGCACCAGAUUCAGCAAUUAAGCUCUAAGCCAUGAAUUCAAAUGACCUCUUAUCA
As for B4, the binding result (with FANCI (human); with FANCI (chicken); in [3]; with FANCD2 (chicken)) was “binds” in each case.

B5: R-loop(G45) = R-loop(GGC) (mixed)
DNA 1: CATTGCATATTTAAAACATGTTGGAGTGAGTGCGTGGCTGAGATCGGGATTGCTGAGTCTGGTGCTTCAAATGACCTCTTATCAAGTGAC
RNA: CGUGGUCUGAGUCGUUAGGGCUAGAGUCGGUGCGUGAGUG
DNA 2: GTCACTTGATAAGAGGTCATTTGAACACTCACGCACCGACTCTAGCCCTAACGACTCAGACCACGTCCAACATGTTTTAAATATGCAATG
As to B5, the binding result in data set [4] was “binds”.

B6: R-loop(G30_G-quad) (mixed)
DNA 1: CATTGCATATTTAAAACATGTTGGATTTAATTCAGGGCTTAGGGCTTGGGTACTGGGTCTAATACTTCAAATGACCTCTTATCAAGTGAC
RNA: CGUGGUCUGAGUCGUUAGGGCUAGAGUCGGUGCGUGAGUG
DNA 2: GTCACTTGATAAGAGGTCATTTGAACACTCACGCACCGACTCTAGCCCTAACGACTCAGACCACGTCCAACATGTTTTAAATATGCAATG
Take B6: the binding result in data set [5] is recorded as “binds”.

B7: R-loop(GAT) (mixed)
DNA 1: CATTGCATATTTAAAACATGTTGGAGTGAGTGCGTGGCTGAGATCGGGATTGCTGAGTCTGGTGCTTCAAATGACCTCTTATCAAGTGAC
RNA: AAAAAAAUAAAAAAAUAAAAAAAAUAAAAAAAUAAAAAAA
DNA 2: GTCACTTGATAAGAGGTCATTTGAATTTTTTTATTTTTTTATTTTTTTTATTTTTTTATTTTTTTTCCAACATGTTTTAAATATGCAATG
Consider B7, for which the binding result in data set [6] is “binds”.

B8: D-loop(GGC) (structured_DNA)
DNA 1: CATTGCATATTTAAAACATGTTGGAGTGAGTGCGTGGCTGAGATCGGGATTGCTGAGTCTGGTGCTTCAAATGACCTCTTATCAAGTGAC
DNA 2: CGTGGTCTGAGTCGTTAGGGCTAGAGTCGGTGCGTGAGTG
DNA 3: GTCACTTGATAAGAGGTCATTTGAACACTCACGCACCGACTCTAGCCCTAACGACTCAGACCACGTCCAACATGTTTTAAATATGCAATG
In the case of B8, in data set [7], the binding result is recorded as “binds”.

B9: ssRNA(G48) (ssRNA)
RNA: GGAUGAGAGGGCAUGUGAGUGCGUGGCUGAGAGCGGGAUUGCUGAGUCUGGUGCUGGGAU
In the case of B9, the binding result in data set [1] is reported as “binds”.

B10: ssDNA / ssDNA(G28) (ssDNA)
DNA: TGATAAGAGGTCATTTGAATTCATGGCTTAGAGCTTAATTGCTGAATCTGGTGCTGGGAT
In the case of B10, the binding result in data set [1] is “binds”.

B11: RNA:DNA hybrid (DNA:RNA)
DNA: TGATAAGAGGTCATTTGAATTCATGGCTTAGAGCTTAATTGCTGAATCTGGTGCTGGGAT
RNA: AUCCCAGCACCAGAUUCAGCAAUUAAGCUCUAAGCCAUGAAUUCAAAUGACCUCUUAUCA
For the molecule B11, the binding result (with FANCI (human); in the data set with FANCI (chicken); in [3]; in the data set with FANCD2 (chicken)) was “binds” each time.

B12: dsDNA / dsDNA(G28) (dsDNA)
DNA 1: TGATAAGAGGTCATTTGAATTCATGGCTTAGAGCTTAATTGCTGAATCTGGTGCTGGGAT
DNA 2: ATCCCAGCACCAGATTCAGCAATTAAGCTCTAAGCCATGAATTCAAATGACCTCTTATCA
With B12, the binding result in [1] was “binds”.
